This assay concerns the target neuraminidase (NA) from A/Brisbane/02/2018 (H1N1), wild type (influenza A virus A/Brisbane/02/2018 (H1N1)). Put plainly: non-reducing SDS-PAGE.

One may read the stoichiometry N as the number of molecules, sites or subunits per partner or assembly. With “neuraminidase (NA) from A/Brisbane/02/2018 (H1N1), wild type (natural protein)”, the stoichiometry N came to 2.
